Experimental data published in patent US20170016905A1 (VAR2 PHARMACEUTICALS, published 2017).

Target: T1, CSPG (bovine) (D8428, Sigma) (bovine, UniProt P21793 31-360, carries chondroitin sulfate A (CSA) glycosaminoglycan chain(s); the filing attributes the binding of VAR2CSA to this glycan)
T1 construct: also called chondroitin sulfate proteoglycan; CSA proteoglycan
Experiment: quartz crystal microbalance (Attana A100), CSPG coated, 1:1 fit

T1 sequence (P21793 31-360): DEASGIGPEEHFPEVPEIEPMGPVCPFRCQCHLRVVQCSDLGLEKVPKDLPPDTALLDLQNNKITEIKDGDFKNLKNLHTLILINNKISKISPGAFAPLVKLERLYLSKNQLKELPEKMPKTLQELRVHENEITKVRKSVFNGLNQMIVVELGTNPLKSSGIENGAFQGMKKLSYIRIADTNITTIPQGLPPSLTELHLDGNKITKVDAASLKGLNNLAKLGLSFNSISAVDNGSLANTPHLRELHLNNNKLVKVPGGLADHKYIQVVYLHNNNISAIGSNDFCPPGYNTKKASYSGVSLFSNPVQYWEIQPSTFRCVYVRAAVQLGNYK

| Binder | Kd |
| --- | --- |
| ID1-ID2a (3D7, Baculo) (other, not shown: V5 and His tag at the C-terminal (modified pAcGP67-A)) LSFILNSSDANNPSEKIQKNNDEVCNCNESGIASVEQEQISDPSSNKTCITHSSIKANKKKVCKHVKLGVRENDKDLRVCVIEHTSLSGVENCCCQDFLRILQENCSDNKSGSSSNGSCNNKNQEACEKNLEKVLASLTNCYKCDKCKSEQSKKNNKNWIWKKSSGKEGGLQKEYANTIGLPPRTQSLCLVVCLDEKGKKTQELKNIRTNSELLKEWIIAAFHEGKNLKPSHEKKNDDNGKKLCKALEYSFADYGDLIKGTSIWDNEYTKDLELNLQKIFGKLFRKYIKKNNTAEQDTSYSSLDELRESWWNTNKKYIWLAMKHGAGMNSTTCCGDGSVTGSGSSCDDIPTIDLIPQYLRFLQEWVEHFCKQRQEKVKPVIENCKSCKESGGTCNGECKTECKNKCEVYKKFIEDCKGGDGTAGSSWVKRWDQIYKRYSKYIEDAKRNRKAGTKNCGPSSTTNAAENKCVQSDIDSFFKHLIDIGLTTPSSYLSIVLDDNICGADKAPWTTYTTYTTTEKCNKETDKSKLQQCNTAVVVNVPSPLGNTPHGYKYACQCKIPTNEETCDDRKEYMNQWSCGSARTMKRGYKNDNYELCKYNGVDVKPTTVRSNSSKLD | 5.7 nM |
| DBL2X-DBL4ε (3D7, Baculo) (other, not shown: V5 and His tag at the C-terminal (modified pAcGP67-A)) LTNCYKCDKCKSEQSKKNNKNWIWKKSSGKEGGLQKEYANTIGLPPRTQSLCLVVCLDEKGKKTQELKNIRTNSELLKEWIIAAFHEGKNLKPSHEKKNDDNGKKLCKALEYSFADYGDLIKGTSIWDNEYTKDLELNLQKIFGKLFRKYIKKNNTAEQDTSYSSLDELRESWWNTNKKYIWLAMKHGAGMNSTTCCGDGSVTGSGSSCDDIPTIDLIPQYLRFLQEWVEHFCKQRQEKVKPVIENCKSCKESGGTCNGECKTECKNKCEVYKKFIEDCKGGDGTAGSSWVKRWDQIYKRYSKYIEDAKRNRKAGTKNCGPSSTTNAAENKCVQSDIDSFFKHLIDIGLTTPSSYLSIVLDDNICGADKAPWTTYTTYTTTEKCNKETDKSKLQQCNTAVVVNVPSPLGNTPHGYKYACQCKIPTNEETCDDRKEYMNQWSCGSARTMKRGYKNDNYELCKYNGVDVKPTTVRSNSSKLDDKDVTFFNLFEQWNKEIQYQIEQYMTNTKISCNNEKNVLSRVSDEAAQPKFSDNERDRNSITHEDKNCKEKCKCYSLWIEKINDQWDKQKDNYNKFQRKQIYDANKGSQNKKVVSLSNFLFFSCWEEYIQKYFNGDWSKIKNIGSDTFEFLIKKCGNDSGDGETIFSEKLNNAEKKCKENESTNNKMKSSETSCDCSEPIYIRGCQPKIYDGKIFPGKGGEKQWICKDTIIHGDTNGACIPPRTQNLCVGELWDKRYGGRSNIKNDTKESLKQKIKNAIQKETELLYEYHDKGTAIISRNPMKGQKEKEEKNNDSNGLPKGFCHAVQRSFIDYKNMILGTSVNIYEYIGKLQEDIKKIIEKGTTKQNGKTVGSGAENVNAWWKGIEGEMWDAVRCAITKINKKQKKNGTFSIDECGIFPPTGNDEDQSVSWFKEWSEQFCIERLQYEKNIRDACTNNGQGDKIQGDCKRKCEEYKKYISEKKQEWDKQKTKYENKYVGKSASDLLKENYPECISANFDFIFNDNIEYKTYYPYGDYSSICSCEQVKYYEYNNAEKKNNKSLCHEKGNDRTWSKKYIKKLENGRTLEGVYVPPRRQQLCLYELFPIIIKNKNDITNAKKELLETLQIVAEREAYYLWKQYHAHNDTTYLAHKKACCAIRGSFYDLEDIIKGNDLVHDEYTKYIDSKLNEIFDSSNKNDIETKRARTDWWENEAIAVPNITGANKSDPKTIRQLVWDAMQSGVRKAIDEEKEKKKPNENFPPCMGVQHIGIAKPQFIRWLEEWTNEFCEKYTKYFEDMKSNCNLRKGADDCDDNSNIECKKACANYTNWLNPKRIEWNGMSNYYNKIYRKSNKESEDGKDYSMIMEPTVIDYLNKRCNGEINGNYICCSCKNIGENSTSGTVNKKLQKKETQCEDNKGPLDLMNKVLNKMDPKYSEHKMKCTEVYLEHVEEQLKEIDNAIKDYKLYPLD | 1.2 nM |
| ID1-DBL3ε (3D7, Baculo) (other, not shown: V5 and His tag at the C-terminal (modified pAcGP67-A)) LSFILNSSDANNPSEKIQKNNDEVCNCNESGIASVEQEQISDPSSNKTCITHSSIKANKKKVCKHVKLGVRENDKDLRVCVIEHTSLSGVENCCCQDFLRILQENCSDNKSGSSSNGSCNNKNQEACEKNLEKVLASLTNCYKCDKCKSEQSKKNNKNWIWKKSSGKEGGLQKEYANTIGLPPRTQSLCLVVCLDEKGKKTQELKNIRTNSELLKEWIIAAFHEGKNLKPSHEKKNDDNGKKLCKALEYSFADYGDLIKGTSIWDNEYTKDLELNLQKIFGKLFRKYIKKNNTAEQDTSYSSLDELRESWWNTNKKYIWLAMKHGAGMNSTTCCGDGSVTGSGSSCDDIPTIDLIPQYLRFLQEWVEHFCKQRQEKVKPVIENCKSCKESGGTCNGECKTECKNKCEVYKKFIEDCKGGDGTAGSSWVKRWDQIYKRYSKYIEDAKRNRKAGTKNCGPSSTTNAAENKCVQSDIDSFFKHLIDIGLTTPSSYLSIVLDDNICGADKAPWTTYTTYTTTEKCNKETDKSKLQQCNTAVVVNVPSPLGNTPHGYKYACQCKIPTNEETCDDRKEYMNQWSCGSARTMKRGYKNDNYELCKYNGVDVKPTTVRSNSSKLDDKDVTFFNLFEQWNKEIQYQIEQYMTNTKISCNNEKNVLSRVSDEAAQPKFSDNERDRNSITHEDKNCKEKCKCYSLWIEKINDQWDKQKDNYNKFQRKQIYDANKGSQNKKVVSLSNFLFFSCWEEYIQKYFNGDWSKIKNIGSDTFEFLIKKCGNDSGDGETIFSEKLNNAEKKCKENESTNNKMKSSETSCDCSEPIYIRGCQPKIYDGKIFPGKGGEKQWICKDTIIHGDTNGACIPPRTQNLCVGELWDKRYGGRSNIKNDTKESLKQKIKNAIQKETELLYEYHDKGTAIISRNPMKGQKEKEEKNNDSNGLPKGFCHAVQRSFIDYKNMILGTSVNIYEYIGKLQEDIKKIIEKGTTKQNGKTVGSGAENVNAWWKGIEGEMWDAVRCAITKINKKQKKNGTFSIDECGIFPPTGNDEDQSVSWFKEWSEQFCIERLQYEKNIRDACTNNGQGDKIQGDCKRKCEEYKKYISEKKQEWDKQKTKYENKYVGKSASDLLKENYPECISANFDFIFNDNIEYKTYYPYGDYSSICSCEQVKYYEYNNAE | 8.5 nM |
| ID1-DBL2Xb (3D7, Baculo) (other, The start at 16 is derived by me from the forward primer (LSFILN); not shown: V5 and His tag at the C-terminal (modified pAcGP67-A)) LSFILNSSDANNPSEKIQKNNDEVCNCNESGIASVEQEQISDPSSNKTCITHSSIKANKKKVCKHVKLGVRENDKDLRVCVIEHTSLSGVENCCCQDFLRILQENCSDNKSGSSSNGSCNNKNQEACEKNLEKVLASLTNCYKCDKCKSEQSKKNNKNWIWKKSSGKEGGLQKEYANTIGLPPRTQSLCLVVCLDEKGKKTQELKNIRTNSELLKEWIIAAFHEGKNLKPSHEKKNDDNGKKLCKALEYSFADYGDLIKGTSIWDNEYTKDLELNLQKIFGKLFRKYIKKNNTAEQDTSYSSLDELRESWWNTNKKYIWLAMKHGAGMNSTTCCGDGSVTGSGSSCDDIPTIDLIPQYLRFLQEWVEHFCKQRQEKVKPVIENCKSCKESGGTCNGECKTECKNKCEVYKKFIEDCKGGDGTAGSSWVKRWDQIYKRYSKYIEDAKRNRKAGTKNCGPSSTTNAAENKCVQSDIDSFFKHLIDIGLTTPSSYLSIVLDDNICGADKAPWTTYTTYTTTEKCNKETDKSKLQQCNTAVVVNVPSPLGNTPHGYKY | 21.8 nM |
| ID1-DBL4ε (3D7, Baculo) (other, not shown: V5 and His tag at the C-terminal (modified pAcGP67-A)) LSFILNSSDANNPSEKIQKNNDEVCNCNESGIASVEQEQISDPSSNKTCITHSSIKANKKKVCKHVKLGVRENDKDLRVCVIEHTSLSGVENCCCQDFLRILQENCSDNKSGSSSNGSCNNKNQEACEKNLEKVLASLTNCYKCDKCKSEQSKKNNKNWIWKKSSGKEGGLQKEYANTIGLPPRTQSLCLVVCLDEKGKKTQELKNIRTNSELLKEWIIAAFHEGKNLKPSHEKKNDDNGKKLCKALEYSFADYGDLIKGTSIWDNEYTKDLELNLQKIFGKLFRKYIKKNNTAEQDTSYSSLDELRESWWNTNKKYIWLAMKHGAGMNSTTCCGDGSVTGSGSSCDDIPTIDLIPQYLRFLQEWVEHFCKQRQEKVKPVIENCKSCKESGGTCNGECKTECKNKCEVYKKFIEDCKGGDGTAGSSWVKRWDQIYKRYSKYIEDAKRNRKAGTKNCGPSSTTNAAENKCVQSDIDSFFKHLIDIGLTTPSSYLSIVLDDNICGADKAPWTTYTTYTTTEKCNKETDKSKLQQCNTAVVVNVPSPLGNTPHGYKYACQCKIPTNEETCDDRKEYMNQWSCGSARTMKRGYKNDNYELCKYNGVDVKPTTVRSNSSKLDDKDVTFFNLFEQWNKEIQYQIEQYMTNTKISCNNEKNVLSRVSDEAAQPKFSDNERDRNSITHEDKNCKEKCKCYSLWIEKINDQWDKQKDNYNKFQRKQIYDANKGSQNKKVVSLSNFLFFSCWEEYIQKYFNGDWSKIKNIGSDTFEFLIKKCGNDSGDGETIFSEKLNNAEKKCKENESTNNKMKSSETSCDCSEPIYIRGCQPKIYDGKIFPGKGGEKQWICKDTIIHGDTNGACIPPRTQNLCVGELWDKRYGGRSNIKNDTKESLKQKIKNAIQKETELLYEYHDKGTAIISRNPMKGQKEKEEKNNDSNGLPKGFCHAVQRSFIDYKNMILGTSVNIYEYIGKLQEDIKKIIEKGTTKQNGKTVGSGAENVNAWWKGIEGEMWDAVRCAITKINKKQKKNGTFSIDECGIFPPTGNDEDQSVSWFKEWSEQFCIERLQYEKNIRDACTNNGQGDKIQGDCKRKCEEYKKYISEKKQEWDKQKTKYENKYVGKSASDLLKENYPECISANFDFIFNDNIEYKTYYPYGDYSSICSCEQVKYYEYNNAEKKNNKSLCHEKGNDRTWSKKYIKKLENGRTLEGVYVPPRRQQLCLYELFPIIIKNKNDITNAKKELLETLQIVAEREAYYLWKQYHAHNDTTYLAHKKACCAIRGSFYDLEDIIKGNDLVHDEYTKYIDSKLNEIFDSSNKNDIETKRARTDWWENEAIAVPNITGANKSDPKTIRQLVWDAMQSGVRKAIDEEKEKKKPNENFPPCMGVQHIGIAKPQFIRWLEEWTNEFCEKYTKYFEDMKSNCNLRKGADDCDDNSNIECKKACANYTNWLNPKRIEWNGMSNYYNKIYRKSNKESEDGKDYSMIMEPTVIDYLNKRCNGEINGNYICCSCKNIGENSTSGTVNKKLQKKETQCEDNKGPLDLMNKVLNKMDPKYSEHKMKCTEVYLEHVEEQLKEIDNAIKDYKLYPLD | 9.4 nM |
| DBL1X-DBL2Xb (FCR3, E. coli, as the column stands) (other, The value stands in column 4 (E. coli, under FCR3); The column may be shifted, in which case the protein could be the 3D7 baculovirus one; Range derived by me from the FCR3 primers (HSDSGK ... PYRYKY)) HSDSGKYDPCEKKLPPYDDNDQWKCQQNSSDGSGKPENICVPPRRERLCTYNLENLKFDKIRDNNAFLADVLLTARNEGEKIVQNHPDTNSSNVCNALERSFADLADIIRGTDQWKGTNSNLEKNLKQMFAKIRENDKVLQDKYPKDQKYTKLREAWWNANRQKVWEVITCGARSNDLLIKRGWRTSGKSDRKKNFELCRKCGHYEKEVPTKLDYVPQFLRWLTEWIEDFYREKQNLIDDMERHREECTREDHKSKEGTSYCSTCKDKCKKYCECVKKWKTEWENQENKYKDLYEQNKNKTSQKNTSRYDDYVKDFFEKLEANYSSLENYIKGDPYFAEYATKLSFILNPSDANNPSGETANHNDEACNCNESGISSVGQAQTSGPSSNKTCITHSSIKTNKKKECKDVKLGVRENDKDLKICVIEDTSLSGVDNCCCQDLLGILQENCSDNKRGSSSNDSCDNKNQDECQKKLEKVFASLTNGYKCDKCKSGTSRSKKKWIWKKSSGNEEGLQEEYANTIGLPPRTQSLYLGNLPKLENVCEDVKDINFDTKEKFLAGCLIVSFHEGKNLKKRYPQNKNSGNKENLCKALEYSFADYGDLIKGTSIWDNEYTKDLELNLQNNFGKLFGKYIKKNNTAEQDTSYSSLDELRESWWNTNKKYIWTAMKHGAEMNITTCNADGSVTGSGSSCDDIPTIDLIPQYLRFLQEWVENFCEQRQAKVKDVITNCKSCKESGNKCKTECKTKCKDECEKYKKFIEACGTAGGGIGTAGSPWSKRWDQIYKRYSKHIEDAKRNRKAGTKNCGTSSTTNAAASTDENKCVQSDIDSFFKHLIDIGLTTPSSYLSNVLDDNICGADKAPWTTYTTYTTTEKCNKERDKSKSQSSDTLVVVNVPSPLGNTPYRYKY | 14.6 nM |
